Laboratory results as given in US20100260765A1 (AstraZeneca / MedImmune, published 2010).

Key:
Test in all cases: cell-based or functional assay
KDR [1] = target: T1, KDR (human, UniProt P35968 20-1356)
KDR [2] = target: T1, KDR; remark: listed apart in the source
KDR [3] = target: T1, KDR; remark: listed apart in the source
KDR [4] = target: T1, KDR; remark: listed apart in the source
KDR [5] = target: T1, KDR; remark: listed apart in the source

T1 sequence (P35968 20-1356): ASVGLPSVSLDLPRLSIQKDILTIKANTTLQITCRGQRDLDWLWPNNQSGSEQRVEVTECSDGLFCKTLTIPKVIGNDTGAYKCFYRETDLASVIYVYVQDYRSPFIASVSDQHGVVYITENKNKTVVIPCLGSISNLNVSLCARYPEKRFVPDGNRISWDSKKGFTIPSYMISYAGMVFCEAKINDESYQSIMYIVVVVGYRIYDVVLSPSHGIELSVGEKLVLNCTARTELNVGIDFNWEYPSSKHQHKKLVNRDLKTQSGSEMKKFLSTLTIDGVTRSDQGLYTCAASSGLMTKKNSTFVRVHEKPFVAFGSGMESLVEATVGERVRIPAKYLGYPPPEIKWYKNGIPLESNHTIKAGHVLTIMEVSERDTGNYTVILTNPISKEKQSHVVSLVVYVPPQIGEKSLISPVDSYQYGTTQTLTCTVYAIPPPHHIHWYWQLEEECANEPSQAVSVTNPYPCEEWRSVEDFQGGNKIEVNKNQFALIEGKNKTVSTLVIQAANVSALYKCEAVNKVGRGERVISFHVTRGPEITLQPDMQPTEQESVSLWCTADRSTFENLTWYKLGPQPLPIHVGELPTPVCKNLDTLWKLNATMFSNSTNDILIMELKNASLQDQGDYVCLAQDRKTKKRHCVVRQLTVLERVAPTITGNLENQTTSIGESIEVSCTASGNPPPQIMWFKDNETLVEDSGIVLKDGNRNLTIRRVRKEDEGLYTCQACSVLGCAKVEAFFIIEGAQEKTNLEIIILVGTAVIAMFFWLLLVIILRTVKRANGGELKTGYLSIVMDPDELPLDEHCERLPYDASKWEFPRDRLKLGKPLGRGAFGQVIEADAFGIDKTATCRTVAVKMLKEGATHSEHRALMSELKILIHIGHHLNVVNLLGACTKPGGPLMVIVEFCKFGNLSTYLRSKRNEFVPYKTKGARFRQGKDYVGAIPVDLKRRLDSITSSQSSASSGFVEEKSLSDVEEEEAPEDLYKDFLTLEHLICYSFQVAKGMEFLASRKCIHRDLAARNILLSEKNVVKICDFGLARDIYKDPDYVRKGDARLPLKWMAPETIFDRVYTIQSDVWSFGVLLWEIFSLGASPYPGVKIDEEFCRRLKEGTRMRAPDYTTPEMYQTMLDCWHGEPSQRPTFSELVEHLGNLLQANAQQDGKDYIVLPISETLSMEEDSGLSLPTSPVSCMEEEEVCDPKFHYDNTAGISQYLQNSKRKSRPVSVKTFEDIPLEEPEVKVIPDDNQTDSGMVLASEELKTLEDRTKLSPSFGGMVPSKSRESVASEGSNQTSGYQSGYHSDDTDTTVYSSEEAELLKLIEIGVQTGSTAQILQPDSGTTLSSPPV

| Binder | Activity at 133 nM (% Inhibition), 1-hour Pre-incubation at 4° C., Average (KDR [1]) [%] | Activity at 133 nM (% Inhibition), 1-hour Pre-incubation at 4° C., N = 1 (KDR [1]) [%] | Activity at 133 nM (% Inhibition), 1-hour Pre-incubation at 4° C., N = 2 (KDR [1]) [%] | Activity at 133 nM (% Inhibition), 24-hour Pre-incubation at 37° C., Average (KDR [2]) [%] | Activity at 133 nM (% Inhibition), 24-hour Pre-incubation at 37° C., N = 1 (KDR [2]) [%] | Activity at 133 nM (% Inhibition), 24-hour Pre-incubation at 37° C., N = 2 (KDR [2]) [%] | % of Max VEGF KDR pTyr Activity (at 133 nM antibody concentration), Average (KDR [3]) [%] | % of Max VEGF KDR pTyr Activity (at 133 nM antibody concentration), N = 1 (KDR [3]) [%] | % of Max VEGF KDR pTyr Activity (at 133 nM antibody concentration), N = 2 (KDR [3]) [%] | Activity at 133 nM Antibody Concentration (% Survival Inhibition), Average (KDR [4]) [%] | Activity at 133 nM Antibody Concentration (% Survival Inhibition), N = 1 (KDR [4]) [%] | Activity at 133 nM Antibody Concentration (% Survival Inhibition), N = 2 (KDR [4]) [%] | % Inhibition of VEGF165-mediated 6-keto Prostaglandin F1α release at 133 nM Antibody Concentration, Average (KDR [5]) [%] | % Inhibition of VEGF165-mediated 6-keto Prostaglandin F1α release at 133 nM Antibody Concentration, N = 1 (KDR [5]) [%] | % Inhibition of VEGF165-mediated 6-keto Prostaglandin F1α release at 133 nM Antibody Concentration, N = 2 (KDR [5]) [%] |
| --- | --- | --- | --- | --- | --- | --- | --- | --- | --- | --- | --- | --- | --- | --- | --- |
| 32G7 (antibody, V domains shown) VH: EVQLVESGGGLVKPGGSLRLSCAASGFTISSYSMNWVRQAPGKGLEWVSFISSRSNYIYYADSVKGRFTISRDNAKNSLYLQMNSLRAEDTAVYYCSKDDWFEELWGQGTLVTVSS VL: DIQMTQSPSSLSASVGDRVTITCRASQDIRNDLGWYQQKPGKAPKRLIYAASSLQSGVPSRFSGSGSGTEFTLTISSLQPEDFATYYCLQHNSFPWTFGQGTKVEIK | 79 | 79 | 79 | 57 | 36 | 77 | 9 | 11 | 6 | 69 | 70 | 67 | 76 | 37 | 115 |
| 33B1 (antibody, V domains shown) VH: EVQLVESGGGLVKPGGSLRLSCAASGFTFSSYTMNWVRQAPGKGLEWVSFIDSRSSYIYYADSVKGRFTISRDNAKNSLYLQMNSLRAEDTAVYYCSKDDWFEELWGQGTLVTVSS VL: DIQMTQSPSSLSASVGDRVTITCRASQGIRNDLGWYQQKPGKAPKRLIYATSSLQSGVPSRFSGSGSGTEFTLTISSLQPEDFATYYCLHHNSFPWTFGQGTKVEIK | 87 | 86 | 88 | 85 | 88 | 82 | 7 | 7 | 7 | 73 | 80 | 66 | 95 | 76 | 114 |
| 30E3 (antibody, V domains shown) VH: EVQLLESGGGLVQPGGSLRLSCAASGFTFSNYALSWVRQAPGKGLEWVSAISGSGRNTYYADSVKGRFTLSRDNSKNTLFLQMNSLRAEDTAVYYCAKASGDNWGQGTLVTVSS VL: not shown | 33 | 29 | 37 | 83 | 69 | 97 | 10 | 11 | 8 | -16 | -5 | -27 | 24 | 15 | 33 |
| 1G6 (antibody, V domains shown) VH: EVQLLESGGGLVQPGGSLRLSCAASGFTFSSYAMSWVRQAPGKGLEWVSAISGGGGNTYYADSVKGRFTISRDNSKNTLYLQMNSLRAEDTAVYYCSKVATDYWGQGTLVTVSS VL: QPVLTQSSSASASLGSSVKLTCTLSSGHSSYIIAWHQQQPGKAPRYLMKLEGSGSYNKGSGVPDRFSGSSSGADRYLTISNLQFEDEADYYCETWDSYTVVFGGGTKLTVL | 43 | 35 | 50 | 36 | 25 | 47 | 13 | 17 | 10 | 0 | 9 | -10 | 49 | 12 | 86 |
| 29A11 (antibody, V domains shown) VH: EVQLLESGGGLVQPGGSLRLSCAASGFTFSNYAMNWVRQAPGKGLEWVSAISGGGGNTYYADSVKGRFTISRDNSKNTLYLQMNRLRAEDTAVYYCAKASGDDWGQGTLVTVSS VL: not shown | 32 | 30 | 33 | 23 | 19 | 27 | 12 | 15 | 10 | -2 | 6 | -10 | 25 | 8 | 41 |
| 29D4 (antibody, V domains shown) VH: QLQLQESGPGLVKPSETLSLTCTVSGGSISSRSNYWGWIRQPPGKGLEWIGTIYYSGHTYYNPSLKSRVSISVDTSKNQFSLKLSSVTATDTALYYCARQQLVLYYFEYWGQGTLVTVSS VL: not shown | 68 | 64 | 73 | 80 | 75 | 85 | 13 | 15 | 12 | 85 | 85 | 85 | 95 | 72 | 119 |
| 33D5 (antibody, V domains shown) VH: QVQLVQSGAEVKKPGASVKVSCKASGYTFGSYDINWVRQATGQGLEWMGWMNPNSGNTGYAQKFQGRVTLTRNTSIRTVYMELSSLRSEDTAVYYCARGGYSNLGWFDPWGQGSLVTVSS VL: DIQMTQSPSSVSVSVGDRVTITCRASQGISSWLAWYQQKPGKAPKLLIYAASSLQSGVPSRFSGSGSGTDFTLTISSLQPEDFATYYCQQANSFPFTFGPGTKVDIK | 49 | 39 | 60 | -15 | 8 | -38 | 17 | 20 | 15 | 5 | 13 | -2 | 36 | 15 | 57 |
